The source of these data is paper PMC7912905.

Assay [1] deals with phosphorylated form of RNA polymerase II (CTD repeat YSPTSPS, phospho S5), in mouse embryonic fibroblasts (mouse (endogenous in MEFs)) (UniProt P08775). The assay is described as follows: FRET or BRET; FLIM-FRET on fixed, immunostained interphase lmna wt cells (MEFs); SC-35 donor (secondary antibody Cy3), RNA polymerase II pS5 acceptor (secondary antibody Cy5); E ≥ 25% taken as interaction. (In general: Bioluminescence resonance energy transfer reports proximity on the nanometre scale.)

Assay [2] concerns the target β-catenin (mouse (endogenous in MEFs)) (UniProt Q02248). The assay is described as follows: FRET or BRET; FLIM-FRET on fixed, immunostained mitotic cells with normal A-type lamins (lmna wt MEFs); SC-35 donor (Cy3), β-catenin acceptor (Cy5); E ≥ 25% taken as interaction.
The target of assay [3] is phosphorylated form of RNAP II in both wt MEFs and HeLa cells. Briefly: FRET or BRET; FLIM-FRET on wt MEFs or HeLa cells transiently transfected with EGFP-SRSF2 (donor), fixed and immunostained for lamin A or RNA polymerase II pS5 (acceptor, secondary antibody Alexa Fluor 594); E ≥ 25% taken as interaction.

Sequence of EGFP-tagged SRSF2 (Q01130 whole entry): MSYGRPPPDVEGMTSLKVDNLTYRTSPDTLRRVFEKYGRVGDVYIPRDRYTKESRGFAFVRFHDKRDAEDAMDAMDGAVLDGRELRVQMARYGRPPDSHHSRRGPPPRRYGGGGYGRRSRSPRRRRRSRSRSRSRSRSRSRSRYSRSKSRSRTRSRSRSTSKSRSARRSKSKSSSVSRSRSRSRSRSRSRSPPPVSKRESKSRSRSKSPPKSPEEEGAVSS
Sequence of β-catenin (mouse (endogenous in MEFs)) (Q02248 whole entry): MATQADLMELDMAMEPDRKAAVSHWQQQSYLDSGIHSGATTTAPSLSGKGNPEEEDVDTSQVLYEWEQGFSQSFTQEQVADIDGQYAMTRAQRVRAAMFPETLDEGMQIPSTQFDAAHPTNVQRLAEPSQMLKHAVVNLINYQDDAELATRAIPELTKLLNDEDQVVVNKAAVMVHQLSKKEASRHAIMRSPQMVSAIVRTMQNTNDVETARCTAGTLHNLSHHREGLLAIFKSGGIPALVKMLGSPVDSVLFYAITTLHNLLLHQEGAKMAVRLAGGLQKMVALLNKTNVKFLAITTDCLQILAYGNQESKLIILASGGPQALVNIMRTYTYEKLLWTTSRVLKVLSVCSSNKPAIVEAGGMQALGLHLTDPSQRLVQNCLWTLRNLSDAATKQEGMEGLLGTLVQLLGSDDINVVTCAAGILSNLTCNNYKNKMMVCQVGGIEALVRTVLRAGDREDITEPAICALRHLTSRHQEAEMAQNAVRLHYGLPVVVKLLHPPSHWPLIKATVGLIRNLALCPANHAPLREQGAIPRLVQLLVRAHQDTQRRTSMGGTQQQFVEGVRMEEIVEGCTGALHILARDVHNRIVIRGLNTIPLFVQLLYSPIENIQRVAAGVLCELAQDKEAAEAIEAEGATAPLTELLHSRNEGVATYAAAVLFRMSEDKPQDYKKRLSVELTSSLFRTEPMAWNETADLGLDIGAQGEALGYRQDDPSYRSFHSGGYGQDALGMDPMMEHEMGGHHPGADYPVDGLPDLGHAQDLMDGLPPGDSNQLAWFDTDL

On to “SC-35 protein (serine/arginine-rich splicing factor 2, encoded by the SRSF2 gene) (from UniProt Q62093 1-221) (natural protein)”, for which the FRET efficiency in assay [1] turned out to be 75%; in assay [2] it was 36.5%.

In turn, “EGFP-tagged SRSF2 (from UniProt Q01130 1-221) (natural protein)” displayed an FRET efficiency in assay [3] of 27 to 29%.
